Experimental data from patent US20160223554A1, “METHODS FOR DIAGNOSIS, PROGNOSIS AND METHODS OF TREATMENT” (priority 2011, published 2016).

How the values were obtained:
AML blasts = experiment: SCNP signaling and apoptosis nodes in AML BMMC (Example 4, Study No. 2); format: cell-based, human
[1] = test system: AML bone marrow mononuclear cells (BMMC); experiment: SCNP of paired diagnosis and relapse AML BMMC and independent diagnostic set (Example 5); format: cell-based, human; settings: for modulator responsive cells in the diagnostic AML bone marrow samples: diagnosis samples of Patients 1 and 2, 15 minutes modulation; for cells in which both p-Akt and p-S6 were induced: SCF 20 ng/ml, 15 minutes
From the text: All AML bone marrow mononuclear cells (BMMC) were derived from the bone marrow (BM) of AML patients treated at MD Anderson Cancer Center (MDACC) between September 1999 and September 2006. Clinical data were de-identified in compliance with Health Insurance Portability and Accountability Act regulations. Patient/sample inclusion criteria required a diagnosis of French-American-British (FAB) classification of M0 through M7 AML (excluding M3) AML, collection prior to therapy initiation and at least 50% viability upon sample thaw. For the identification of chemoresistant signaling profiles, two longitudinally paired BMMC samples at diagnosis (collection prior to the initiation of induction chemotherapy) and first relapse, were examined. An independent test set comprised of 47 BMMC samples collected at diagnosis from AML patients with a disease response of CR after high dose cytarabine based chemotherapy was used to assess the ability of the identified signaling profiles to predict disease relapse. Healthy, unstimulated BMMC (n=2) were purchased from a commercial source (All Cells) to serve as a control. All samples underwent fractionation over Ficoll-Hypaque prior to cryopreservation with 90% fetal bovine serum and 10% dimethyl sulfoxide and storage in liquid nitrogen.
The SCNP assay measured response to growth factors and cytokines involved in hematopoietic progenitor or myeloid biology (SCF, FLT3L, G-CSF, IL-27), drug transporter (ABCG2, MRP-1) and chemokine receptors (CXCR4) associated with adverse disease prognosis in AML, and the c-Kit growth factor receptor for SCF. The SCF and FLT3L—mediated PI3K/Akt and MAPK pathway is important for maintaining the hematopoietic stem cell pool; G-CSF-mediated Jak/STAT pathway activation is important for neutrophilic differentiation of hematopoietic progenitor cells; interleukin (IL)-27 mediated Jak/STAT pathway activation is important in regulating proliferation and differentiation of hematopoietic stem cells; CXCR4 expression is associated with disease relapse and decreased survival; and drug transporter expression levels (i.e. ABCG2 and MRP-1) are known to be associated with adverse prognosis in AML. All together, approximately 20 signaling nodes were evaluated in each sample.
SCNP assays were performed as described previously. Cryopreserved samples were thawed at 37° C. and washed once in warm PBS containing 10% FBS (HyClone, Waltham, Mass., USA) and 2 mM EDTA. […] The cells were re-suspended in RPMI containing 1% FBS, aliquoted to 100,000 cells/condition and rested for 1-2 hours at 37° C. Cells were incubated for 15 minutes at 37° C. with each of the following signaling modulators: fins-like tyrosine kinase receptor-3 ligand (FLT3L, 50 ng/ml; eBiosciences, San Diego, Calif., USA); granulocyte colony-stimulating factor (G-CSF, 50 ng/ml; R&D Systems, Minneapolis, Minn., USA); interleukin-27 (IL-27, 50 ng/ml, R&D Systems); stem cell factor (SCF, 20 ng/ml, R&D Systems). After exposure to modulators, cells were fixed with a final concentration of 1.6% paraformaldehyde (Electron Microscopy Sciences, Hatfield, Pa., USA) for 10 minutes at 37° C. Cells were pelleted and then permeabilized with 100% ice-cold methanol (Sigma-Aldrich, St. Louis, Mo., USA) and stored at −80° C. overnight. Subsequently, cells were washed with FACS buffer containing phosphate buffered saline (PBS, Fisher Scientific, Waltham, Mass., USA), 0.5% bovine serum albumin (BSA, Ankeny, Iowa, USA), 0.05% NaN3 (Mallinckrodt, Hazelwood, Mo., USA), pelleted and stained with cocktails of fluorochrome-conjugated antibodies. As an exploratory effort, when sufficient number of cells were available, simultaneous measurement of c-Kit expression and SCF induced signaling was also performed. Antibodies were available from commercial vendors such as BD, Bechman Coulter, Invitrogen and R&D Systems.
Flow cytometry data was acquired on an LSR II and/or CANTO II flow cytometer using the FACS DIVA software (BD Biosciences, San Jose, Calif.). […]

AML PBMC = experiment: Kinase inhibitor Signaling Arm, SCNP (Example 13); format: cell-based, human; settings: range over AML PBMC samples (N=6); short modulation, 15 minutes
[2] = test system: elderly pts with untreated AML; settings: cited from earlier work
[3] = Study No.2, patients age 60 and older
[4] = Study No.2, patients with De Novo AML
[5] = Study No.2, patients with Secondary AML
[6] = Fold metric, all patients, Study No. 2
[7] = Study No.2, patients less than 60 years old
[8] = TotalPhospho metric, all patients, Study No. 2

In the case of SCF: stem cell factor, ligand of c-Kit, the “Mean Value of CRs, p-S6 Fold” value (AML blasts; [3]) is reported as 0.14, the “Mean Value of NRs, p-S6 Fold” value (AML blasts; [3]) is reported as 0.70 and the “Mean Value of CRs, p-Akt Fold” value (AML blasts; [4]) is reported as 0.52. For the same molecule, the “Mean Value of CRs, p-PLCy2 TotalPhospho” value (AML blasts; [4]) was 1.29, the “Mean Value of CRs, p-S6 Fold” value (AML blasts; [4]) was 1.05 and the “Mean Value of NRs, p-Akt Fold” value (AML blasts; [4]) was −0.20. The “Mean Value of NRs, p-PLCy2 TotalPhospho” value (AML blasts; [4]) was 1.96, the “Mean Value of NRs, p-S6 Fold” value (AML blasts; [4]) was 0.43 and the “Mean Value of CRs, p-S6 Fold” value (AML blasts; [5]) was 0.21. For the same molecule, the “Mean Value of NRs, p-S6 Fold” value (AML blasts; [5]) was 1.28, the “modulator responsive cells in the diagnostic AML bone marrow samples” value (“modulator responsive cells” below) [1] was ~1% and the “cells in which both p-Akt and p-S6 were induced” value ([1]; relapse sample from Patient 1) was 3.2%. The “cells in which both p-Akt and p-S6 were induced” value ([1]; relapse sample from Patient 2) was 31.7% and the “percentage of growth factor responsive cells” value (shortened to “percentage”) (AML PBMC) was 6%-49%.

B1: FLT3L: fms-like tyrosine kinase receptor-3 ligand (protein, UniProt P49771 27-235, looked up)
Fms-related tyrosine kinase 3 …: TQDCSFQHSPISSDFAVKIRELSDYLLQDYPVTVASNLQDEELCGGLWRLVLAQRWMERLKTVAGSKMQGLLERVNTEIHFVTKCAFQPPPSCLRFVQTNISRLLQETSEQLVALKPWITRQNFSRCLELQCQPDSSTLPPPWSPRPLEATAPTAPQPPLLLLLLLPVGLLLLAAAWCLHWQRTRRRTPRPGEQVPPVPSPQDLLLVEH
With B1 the “Mean Value of CRs, p-Akt Fold” value (AML blasts; [3]) was 0.00, the “Mean Value of CRs, p-Erk Fold” value (AML blasts; [3]) was 0.01 and the “Mean Value of CRs, p-S6 Fold” value (AML blasts; [3]) was −0.06. For the same molecule, the “Mean Value of NRs, p-Akt Fold” value (AML blasts; [3]) was 0.36, the “Mean Value of NRs, p-Erk Fold” value (AML blasts; [3]) was 0.21 and the “Mean Value of NRs, p-S6 Fold” value (AML blasts; [3]) was 0.67. The “Mean Value of CRs, p-PLCy2 TotalPhospho” value (AML blasts; [4]) was 1.26, the “Mean Value of NRs, p-PLCy2 TotalPhospho” value (AML blasts; [4]) was 1.95 and the “Mean Value of CRs, P-Erk Fold” value (AML blasts; [5]) was 0.00. For the same molecule, the “Mean Value of CRs, p-Akt Fold” value (AML blasts; [5]) was 0.19, the “Mean Value of CRs, p-S6 Fold” value (AML blasts; [5]) was 0.12 and the “Mean Value of NRs, P-Erk Fold” value (AML blasts; [5]) was 0.32. For the same molecule, the “Mean Value of NRs, p-Akt Fold” value (AML blasts; [5]) was 0.60, the “Mean Value of NRs, p-S6 Fold” value (AML blasts; [5]) was 1.02 and the “modulator responsive cells” value [1] was ~1%. For the same molecule, the “percentage” value (AML PBMC) was 3%-22%.

B2: G-CSF: granulocyte colony-stimulating factor (protein, UniProt P09919 31-207, looked up)
Granulocyte …: TPLGPASSLPQSFLLKCLEQVRKIQGDGAALQEKLVSECATYKLCHPEELVLLGHSLGIPWAPLSSCPSQALQLAGCLSQLHSGLFLYQGLLQALEGISPELGPTLDTLQLDVADFATTIWQQMEELGMAPALQPTQGAMPAFASAFQRRAGGVLVASHLQSFLEVSYRVLRHLAQP
For B2, the “Mean Value of CRs, p-Stat1 Fold” value (AML blasts; [5]) was 0.00, the “Mean Value of CRs, p-Stat3 Fold” value (AML blasts; [5]) was 0.06 and the “Mean Value of CRs, p-Stat5 Fold” value (AML blasts; [5]) was 0.08. For the same molecule, the “Mean Value of CRs, p-Stat5 TotalPhospho” value (AML blasts; [5]) was 2.58, the “Mean Value of NRs, p-Stat1 Fold” value (AML blasts; [5]) was 0.36 and the “Mean Value of NRs, p-Stat3 Fold” value (AML blasts; [5]) was 0.96. The “Mean Value of NRs, p-Stat5 Fold” value (AML blasts; [5]) was 1.07, the “Mean Value of NRs, p-Stat5 TotalPhospho” value (AML blasts; [5]) was 3.91 and the “modulator responsive cells” value [1] was ~1%. For the same molecule, the “percentage” value (AML PBMC) was 3%-56%, the “Med RFS” value ([2]; SWOG-9031, by arm (NS)) was 9 mo; G-CSF: 8 and the “CR Rates” value ([2]; SWOG-9031, by arm, added to Ara-C/DNR induction, p = 0.89) was “G-CSF: 41%”. For the same molecule, the “Med. OS” value ([2]; SWOG-9031, by arm, p = .71) was “G-CSF: 6 mos”.

B3: IL-27: interleukin-27, cytokine modulator (protein, UniProt Q8NEV9 29-243; Q14213 21-229, looked up)
Interleukin-27 subunit alpha: FPRPPGRPQLSLQELRREFTVSLHLARKLLSEVRGQAHRFAESHLPGVNLYLLPLGEQLPDVSLTFQAWRRLSDPERLCFISTTLQPFHALLGGLGTQGRWTNMERMQLWAMRLDLRDLQRHLRFQVLAAGFNLPEEEEEEEEEEEEERKGLLPGALGSALQGPAQVSWPQLLSTYRLLHSLELVLSRAVRELLLLSKAGHSVWPLGFPTLSPQP
Interleukin-27 subunit beta: RKGPPAALTLPRVQCRASRYPIAVDCSWTLPPAPNSTSPVSFIATYRLGMAARGHSWPCLQQTPTSTSCTITDVQLFSMAPYVLNVTAVHPWGSSSSFVPFITEHIIKPDPPEGVRLSPLAERQLQVQWEPPGSWPFPEIFSLKYWIRYKRQGAARFHRVGPIEATSFILRAVRPRARYYVQVAAQDLTDYGELSDWSLPATATMSLGK
With B3 the “Mean Value of CRs, p-Stat3” value (AML blasts; [6]) was 0.22, the “Mean Value of NRs, p-Stat3” value (AML blasts; [6]) was 0.58 and the “Mean Value of CRs, p-Stat3 Fold” value (AML blasts; [3]) was −0.19. For the same molecule, the “Mean Value of NRs, p-Stat3 Fold” value (AML blasts; [3]) was 0.48, the “Mean Value of CRs, p-Stat1 TotalPhospho” value (AML blasts; [7]) was 1.73 and the “Mean Value of CRs, p-Stat3 Fold” value (AML blasts; [7]) was 0.29. The “Mean Value of CRs, p-Stat3 TotalPhospho” value (AML blasts; [7]) was 1.97, the “Mean Value of NRs, p-Stat1 TotalPhospho” value (AML blasts; [7]) was 3.12 and the “Mean Value of NRs, p-Stat3 Fold” value (AML blasts; [7]) was 0.72. The “Mean Value of NRs, p-Stat3 TotalPhospho” value (AML blasts; [7]) was 3.06, the “Mean Value of CRs, p-Stat1 Fold” value (AML blasts; [5]) was 0.32 and the “Mean Value of CRs, p-Stat1 TotalPhospho” value (AML blasts; [5]) was 1.50. For the same molecule, the “Mean Value of CRs, p-Stat3 Fold” value (AML blasts; [5]) was −0.01, the “Mean Value of CRs, p-Stat3 TotalPhospho” value (AML blasts; [5]) was 1.61 and the “Mean Value of NRs, p-Stat1 Fold” value (AML blasts; [5]) was 1.90. The “Mean Value of NRs, p-Stat1 TotalPhospho” value (AML blasts; [5]) was 3.19, the “Mean Value of NRs, p-Stat3 Fold” value (AML blasts; [5]) was 0.76 and the “Mean Value of NRs, p-Stat3 TotalPhospho” value (AML blasts; [5]) was 2.60. The “Mean Value of CRs, p-Stat1” value (AML blasts; [8]) was 1.66, the “Mean Value of CRs, p-Stat3” value (AML blasts; [8]) was 1.88 and the “Mean Value of NRs, p-Stat1” value (AML blasts; [8]) was 2.63. For the same molecule, the “Mean Value of NRs, p-Stat3” value (AML blasts; [8]) was 2.43 and the “modulator responsive cells” value [1] was “no IL-27 responsive subpopulation was identified”.
